In publication PMC4034487, “Immobilization of a Pleurotus ostreatus Laccase Mixture on Perlite and Its Application to Dye Decolourisation” (BioMed Research International, 2014):

Substrate: CCn1c(=NN=c2sc3cc(S(=O)(=O)O)ccc3n2CC)sc2cc(S(=O)(=O)O)ccc21
Assay: purified protein
Assay type: biochemical, Pleurotus ostreatus
Conditions: free soluble enzyme, 0.1 M sodium citrate pH 3.0, 25°C (general assay)

B1: POXC (Pleurotus ostreatus) (protein)
chain: AIGPAGNMYIVNEDVSPDGFARSAVVARSVPATDPTPATASIPGVLVQGNKGDNFQLNVVNQLSDTTMLKTTSIHWHGFFQAGSSWADGPAFVTQCPVASGDSFLYNFNVPDQAGTFWYHSHLSTQYCDGLRGPFVVYDPSDPHLSLYDIDNADTVITLEDWYHIVAPQNAAIPTPDSTLINGKGRYAGGPTSPLAIINVESNKRYRFRLVSMSCDPNFTFSIDGHSLLVIEADAVNIVPITVDSIQIFAGQRYSFVLTANQAVDNYWIRANPNLGSTGFVGGINSAILRYAGATEDDPTTTSSTSTPLLETNLVPLENPGAPGPPVPGGADININLAMAFDFTTFELTINGVPFLPPTAPVLLQILSGASTAASLLPSGSIYELEANKVVEISMPALAVGGPHPFHLHGHTFDVIRSAGSTTYNFDTPARRDVVNTGTGANDNVTIRFVTDNPGPWFLHCHIDWHLEIGLAVVFAEDVTSISAPPAAWDDLCPIYNALSDNDKGGIVPS
notes: native purified laccase isoenzyme from P. ostreatus; soluble form
Question: Which results are given for B1?
Answer: Km: 30 µM; kcat: 10300 s⁻¹
